Laboratory results as given in the Human Domainome abundance scans (Beltran et al. 2025).
± gives the uncertainty stated by the source.

experiment: abundance fitness (aPCA) (normalised: wild type 0, dead -1); higher = more abundant; growth selection in yeast, the domain comes from the species named; settings: Homo sapiens

Substance | abundance fitness
Scaffold attachment factor B2 T27E, Q14151 | 0.08 ± 0.21
Scaffold attachment factor B2 K61W, Q14151 | -0.357 ± 0.1
Scaffold attachment factor B2 Q69A, Q14151 | -0.094 ± 0.13
Scaffold attachment factor B2 S54M, Q14151 | -0.15 ± 0.2
Scaffold attachment factor B2 K61T, Q14151 | -0.22 ± 0.17
Scaffold attachment factor B2 L47D, Q14151 | -0.491 ± 0.11
Scaffold attachment factor B2 V35D, Q14151 | -0.087 ± 0.11
Scaffold attachment factor B2 I36A, Q14151 | 0.153 ± 0.082
Scaffold attachment factor B2 L47Q, Q14151 | -0.287 ± 0.12
Scaffold attachment factor B2 V64S, Q14151 | -0.242 ± 0.084
Scaffold attachment factor B2 E32H, Q14151 | -0.52 ± 0.23
Scaffold attachment factor B2 E67V, Q14151 | -0.333 ± 0.1
Scaffold attachment factor B2 L56T, Q14151 | -0.546 ± 0.12
Scaffold attachment factor B2 K62M, Q14151 | -0.288 ± 0.19
Tyrosine-protein kinase Lck S75R, P06239 | -0.064 ± 0.081
Scaffold attachment factor B2 N52M, Q14151 | -0.442 ± 0.11
Scaffold attachment factor B2 K43T, Q14151 | -0.217 ± 0.1
Scaffold attachment factor B2 E66F, Q14151 | -0.417 ± 0.13
Tyrosine-protein kinase Lck I67S, P06239 | -0.378 ± 0.08
Scaffold attachment factor B2 M57N, Q14151 | -0.492 ± 0.14
Scaffold attachment factor B2 M57C, Q14151 | -0.504 ± 0.12
Scaffold attachment factor B2 Q69K, Q14151 | -0.164 ± 0.1

Substance | abundance fitness
Scaffold attachment factor B2 G50P, Q14151 | -1.01 ± 0.16
Scaffold attachment factor B2 L42G, Q14151 | -0.439 ± 0.07
Scaffold attachment factor B2 R59E, Q14151 | -0.294 ± 0.099
Scaffold attachment factor B2 R59G, Q14151 | -0.23 ± 0.11
Scaffold attachment factor B2 I36T, Q14151 | 0.173 ± 0.12
Scaffold attachment factor B2 K62Q, Q14151 | -0.125 ± 0.13
Scaffold attachment factor B2 Q69P, Q14151 | -0.227 ± 0.15
Scaffold attachment factor B2 I36V, Q14151 | -0.002 ± 0.091
Scaffold attachment factor B2 T27Q, Q14151 | -0.076 ± 0.19
Scaffold attachment factor B2 I36H, Q14151 | -0.208 ± 0.2
Scaffold attachment factor B2 E58F, Q14151 | -0.769 ± 0.11
Scaffold attachment factor B2 I36E, Q14151 | 0.157 ± 0.13
Tyrosine-protein kinase Lck I67D, P06239 | -0.506 ± 0.21
Scaffold attachment factor B2 E67R, Q14151 | -0.445 ± 0.1
Scaffold attachment factor B2 K44M, Q14151 | -0.379 ± 0.14
Scaffold attachment factor B2 E67W, Q14151 | -0.85 ± 0.11
Scaffold attachment factor B2 K43F, Q14151 | -0.601 ± 0.15
Scaffold attachment factor B2 K65L, Q14151 | -0.205 ± 0.1
Scaffold attachment factor B2 G51P, Q14151 | -0.998 ± 0.26
Scaffold attachment factor B2 K53Y, Q14151 | -0.054 ± 0.43
Scaffold attachment factor B2 V55M, Q14151 | -0.02 ± 0.23
Scaffold attachment factor B2 V55H, Q14151 | -0.583 ± 0.15

Substance | abundance fitness
Scaffold attachment factor B2 K44N, Q14151 | -0.27 ± 0.13
Scaffold attachment factor B2 K43W, Q14151 | -0.359 ± 0.094
Scaffold attachment factor B2 K43A, Q14151 | 0.022 ± 0.097
Scaffold attachment factor B2 N46A, Q14151 | -0.317 ± 0.076
Scaffold attachment factor B2 M57E, Q14151 | -0.292 ± 0.11
Scaffold attachment factor B2 I36N, Q14151 | -0.073 ± 0.13
Scaffold attachment factor B2 E32D, Q14151 | 0.003 ± 0.1
Scaffold attachment factor B2 S31Y, Q14151 | -0.629 ± 0.12
Scaffold attachment factor B2 K62H, Q14151 | -0.083 ± 0.15
Scaffold attachment factor B2 E58C, Q14151 | -0.364 ± 0.12
Scaffold attachment factor B2 S54N, Q14151 | -0.223 ± 0.12
Scaffold attachment factor B2 M57G, Q14151 | -0.631 ± 0.09
Scaffold attachment factor B2 R59T, Q14151 | -0.223 ± 0.15
Scaffold attachment factor B2 R28C, Q14151 | -0.271 ± 0.15
Scaffold attachment factor B2 L33H, Q14151 | -0.46 ± 0.25
Scaffold attachment factor B2 E32I, Q14151 | -0.657 ± 0.14
Scaffold attachment factor B2 E58P, Q14151 | -0.612 ± 0.09
Scaffold attachment factor B2 L56H, Q14151 | -0.296 ± 0.094
Scaffold attachment factor B2 S31N, Q14151 | -0.027 ± 0.11
Scaffold attachment factor B2 R34W, Q14151 | -0.679 ± 0.086
Scaffold attachment factor B2 G68S, Q14151 | -0.178 ± 0.12
Scaffold attachment factor B2 G51K, Q14151 | -0.786 ± 0.15

Substance | abundance fitness
Scaffold attachment factor B2 R29C, Q14151 | -0.474 ± 0.31
Scaffold attachment factor B2 R59A, Q14151 | -0.465 ± 0.092
Scaffold attachment factor B2 G51C, Q14151 | -0.517 ± 0.13
Scaffold attachment factor B2 R29V, Q14151 | -0.233 ± 0.08
Scaffold attachment factor B2 G50E, Q14151 | -0.119 ± 0.084
Scaffold attachment factor B2 D37L, Q14151 | -0.9 ± 0.14
Scaffold attachment factor B2 K43G, Q14151 | -0.172 ± 0.074
Scaffold attachment factor B2 D70P, Q14151 | 0.014 ± 0.13
Tyrosine-protein kinase Lck I67W, P06239 | -0.078 ± 0.11
Scaffold attachment factor B2 D48K, Q14151 | -0.358 ± 0.084
Scaffold attachment factor B2 N46C, Q14151 | -0.656 ± 0.12
Scaffold attachment factor B2 A40Y, Q14151 | -0.387 ± 0.11
Scaffold attachment factor B2 N46Y, Q14151 | -0.484 ± 0.11
Scaffold attachment factor B2 E32S, Q14151 | -0.36 ± 0.093
Scaffold attachment factor B2 N52T, Q14151 | -0.037 ± 0.093
Scaffold attachment factor B2 E66A, Q14151 | -0.092 ± 0.091
Scaffold attachment factor B2 R28Y, Q14151 | -0.377 ± 0.18
Scaffold attachment factor B2 V64A, Q14151 | -0.227 ± 0.096
Scaffold attachment factor B2 K65R, Q14151 | -0.136 ± 0.099
Scaffold attachment factor B2 G51Q, Q14151 | -0.704 ± 0.096
Scaffold attachment factor B2 I36S, Q14151 | 0.127 ± 0.081
Scaffold attachment factor B2 D70K, Q14151 | -0.337 ± 0.29

Substance | abundance fitness
Scaffold attachment factor B2 M57A, Q14151 | -0.454 ± 0.087
Scaffold attachment factor B2 K61M, Q14151 | -0.186 ± 0.11
Scaffold attachment factor B2 R45F, Q14151 | -0.784 ± 0.21
Scaffold attachment factor B2 R45D, Q14151 | -0.52 ± 0.13
Scaffold attachment factor B2 T49L, Q14151 | -0.155 ± 0.089
Scaffold attachment factor B2 S31D, Q14151 | -0.086 ± 0.12
Scaffold attachment factor B2 Q69I, Q14151 | -0.262 ± 0.11
Scaffold attachment factor B2 I36R, Q14151 | 0.079 ± 0.071
Scaffold attachment factor B2 G68Q, Q14151 | -0.078 ± 0.1
Scaffold attachment factor B2 L30C, Q14151 | -0.708 ± 0.094
Scaffold attachment factor B2 G51R, Q14151 | -0.794 ± 0.072
Scaffold attachment factor B2 E66L, Q14151 | -0.247 ± 0.1
Scaffold attachment factor B2 K44L, Q14151 | -0.256 ± 0.11
Scaffold attachment factor B2 L47C, Q14151 | -0.339 ± 0.096
Scaffold attachment factor B2 R29W, Q14151 | -0.246 ± 0.083
Scaffold attachment factor B2 L56Q, Q14151 | -0.378 ± 0.28
Scaffold attachment factor B2 V55Q, Q14151 | -0.173 ± 0.1
Scaffold attachment factor B2 L60M, Q14151 | -0.343 ± 0.15
Scaffold attachment factor B2 T27W, Q14151 | -0.514 ± 0.13
Scaffold attachment factor B2 L60D, Q14151 | -0.019 ± 0.14
Scaffold attachment factor B2 Q69W, Q14151 | -0.285 ± 0.13
Scaffold attachment factor B2 K53L, Q14151 | -0.326 ± 0.078
